Values joined by “and” are separate entries in the source; they are usually repeats but may differ in a detail not shown here. Identical values can stand only once. *1 amine or outer side, *2 acyl side, *3 side chain or, on linkers, in order; H or OH if unused. Bridges are numbered along the chain shown (N, C = ends). Roman numbers before positions name the chains, in order. Where no end group is shown, it is not given here. [ ]: non-standard residue; d: D form. d(γGlu) = O=C(O)[C@@H](CCC(=O)[*:2])N[*:1]; Bip = N[C@@H](Cc1ccc(-c2ccccc2)cc1)C(=O)O; PEG8 = NCCOCCOCCOCCOCCOCCOCCOCCOCCC(=O)O; NMeF = CN[C@@H](Cc1ccccc1)C(=O)O; Ahp(2) = CCCCC[C@H](N)C(=O)O
Columns and labels:
[1] = molecular target: CD38 on Daudi cells (ATCC CCL-213) (human) (UniProt P28907); experiment: cell-based or functional assay
[2] = molecular target: CD38 (human, UniProt P28907 1-300); experiment: cell-based or functional assay
[3] = molecular target: T1, CD38 (human, UniProt P28907 43-300, limits assumed); experiment: ELISA; larger values represent binding
T1 construct: also called cluster of differentiation 38; cyclic ADP ribose hydrolase

B1: I-30 (peptide)
peptide 1: AR[Ahp(2)]YHDGVL[Bip][Ahp(2)]DC-{4‑aminobutanoic acid}
peptide 2: DCAWHLGELVWCT-NH2
modifications: disulfide II:2-II:12; also: thioether at chain A 13 to a chain's N-terminus
In the case of B1, the % dead cells at 1 nM [1] is reported as 14.3% and 14.7%, the % dead cells at 3 nM [1] is reported as 14.7% and 15.7% and the % dead cells at 10 nM [1] is reported as 14.1%. For the same binder, the % dead cells at 30 nM [1] was 16.3% and 15.3%, the % dead cells at 100 nM [1] was 17.1% and 18.1% and the % dead cells at 300 nM [1] was 19% and 20.6%. The % dead cells at 3000 nM [1] was 18.1% and 17.5%, the EC50 (nM), killing of target cells [1] was 175 nM and the “EC50 (nM), ADCC reporter cells” value [2] was 12 nM.

B2: I-28 (peptide)
peptide 1: {‑C(O)CH2‑}-AR[Ahp(2)]YHDGVL[Bip][Ahp(2)]DC-{PEG8-d(γGlu)-d(γGlu)-D‑Glu(side chain amide of 12-aminododecanoic acid)-d(γGlu)-d(γGlu)-Gly-Gly}
peptide 2: DCAWHLGELVWCT
modifications: disulfide II:2-II:12; also: chain 2 joined to the end of the chain 1 linker, thioether at chain A 13 to a chain's N-terminus
B2 was tested, and the “EC50 (nM), ADCC reporter cells” value [2] was 14 nM.

ALHAVLP[Bip]VWVC (not fully specified (N-terminus, bridges); printed as A L H A V L P Bph V W V C, Alanine variant at position 4) [A L H A V L P Bph V W V C] was tested, and the “Binding Assay (ELISA signal)” value [3] was 0.1.

B3: A L H MeF A L P Bph V W V C (peptide)
peptide: ALH[NMeF]ALP[Bip]VWVC
modifications: not fully specified (N-terminus, bridges); printed as A L H MeF A L P Bph V W V C
notes: Alanine variant at position 5
For B3, the “Binding Assay (ELISA signal)” value [3] was 0.47.

B4: A L H MeF V A P Bph V W V C (peptide)
peptide: ALH[NMeF]VAP[Bip]VWVC
modifications: not fully specified (N-terminus, bridges); printed as A L H MeF V A P Bph V W V C
notes: Alanine variant at position 6
For B4, the “Binding Assay (ELISA signal)” value [3] was 0.09.

B5: A L H MeF V L A Bph V W V C (peptide)
peptide: ALH[NMeF]VLA[Bip]VWVC
modifications: not fully specified (N-terminus, bridges); printed as A L H MeF V L A Bph V W V C
notes: Alanine variant at position 7
In the case of B5, the “Binding Assay (ELISA signal)” value [3] is reported as 0.11.

ALH[NMeF]VLPAVWVC (not fully specified; printed as A L H MeF V L P A V W V C, Alanine variant at position 8) [A L H MeF V L P A V W V C] was tested, and the “Binding Assay (ELISA signal)” value [3] was 0.09.

B6: A L H MeF V L P Bph A W V C (peptide)
peptide: ALH[NMeF]VLP[Bip]AWVC
modifications: not fully specified (N-terminus, bridges); printed as A L H MeF V L P Bph A W V C
notes: Alanine variant at position 9
B6 was tested, and the “Binding Assay (ELISA signal)” value [3] was 0.12.

B7: A L H MeF V L P Bph V A V C (peptide)
peptide: ALH[NMeF]VLP[Bip]VAVC
modifications: not fully specified (N-terminus, bridges); printed as A L H MeF V L P Bph V A V C
notes: Alanine variant at position 10
With B7 the “Binding Assay (ELISA signal)” value [3] was 0.1.

B8: A L H MeF V L P Bph V W A C (peptide)
peptide: ALH[NMeF]VLP[Bip]VWAC
modifications: not fully specified (N-terminus, bridges); printed as A L H MeF V L P Bph V W A C
notes: Alanine variant at position 11
In the case of B8, the “Binding Assay (ELISA signal)” value [3] is reported as 0.41.

Source: patent US20230028880A1, “CD38-BINDING AGENTS AND USES THEREOF” (Biohaven Therapeutics Ltd., priority 2019, published 2023)
